± gives the uncertainty stated by the source.
Experiment: amyloid nucleation score (Sup35N fusion, yeast selection) (log enrichment); library NNK3; higher = more nucleation; inactive = no reads after selection
In short: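 Yeast lacking psi expressed peptides of 20 random codons fused to Sup35N, received 100 μM copper sulfate for 24 hours, and were then grown for 7 days at 30°C on medium lacking adenine and uracil. Illumina sequencing of input and output plasmid inserts provided the reads. Nucleation scores are DiMSum log enrichments of output over input, centred on the mode of non-aggregating sequences. Any sequence with under 100 input reads was excluded.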

Substance | amyloid nucleation score
WDGLHVCLKSIIGGNSGLEK | inactive
IYVVLQTWHNYAMLTITGLV | 0.228 ± 0.67
LLIRTSLVGEIPLSVSVGCL | inactive
NWFSSQS | inactive
TLWMGF | inactive
HSTTSLWSVVSVQSKTFMLK | inactive
HQYWEGCSMLYL | inactive
YNPIGFRRLFTPTCLFITKL | inactive
CLYKSFLIS | inactive
TVAMR | inactive
RLHLRKYFFETAHWICMNDG | inactive
CLRMGYVLRSRWERLDCLKW | inactive
VDNHACPWTGGLHFRKLWNG | inactive
LSVANQNCVKLDIVHM | inactive
ITDLYF | inactive
CMIMRAFRYNVALDMHMLHD | inactive
EVVSLLTFMLASLLSISVVN | inactive
HGFSMTFRLLTFFHGKNYCM | inactive
CSSRMVFLRHLAGFLWGRPP | 0.038 ± 0.85
MRMTTYSGIRVGIIERIMIN | inactive
QDTLYMLDPGG | -0.318 ± 0.7
MWGSM | inactive
GSFSMKDTVEVYLTPVWFSR | inactive

Substance | amyloid nucleation score
SRCGSIGGMKG | inactive
SFNHCM | inactive
LPGNLYFYVTGTCDNYLTVW | inactive
KNTGMGDTVSFRLVSAFEHI | inactive
GCSTINALCGHLDVVVCIAG | 1.64 ± 0.094
RPGTCNLLVDGHLSWFQSAT | -0.288 ± 1
DNIGSCHDSRAYVS | inactive
SCFISSMYFASWKFRISNGV | inactive
LMLDFSIGRSPGDNAVICRH | inactive
SRDFKIGCWLKIRSVIDPVW | inactive
ENAYLRSCRVVVKESSNVVV | -0.906 ± 1.4
SSLPRPLVFRSLFVWREYIQ | -0.06 ± 0.77
APIWVFRAYLVFL | inactive
AWGSVYVALVWRWNFRCVR | inactive
LIRQRLDRLVQHFVDFRVFF | inactive
TLVGYLIARLFWR | inactive
FLLSVNQASNYGTWILWFYR | inactive
VCREGLRDSRSAGGFFSYII | inactive
ICCTSS | inactive
CSVGSFFRFDIIYWKYAGSL | -0.2 ± 0.36
SNAMMGSRRIGLMGYAVRVL | inactive
VHELIDHKMKMIGLVFGLSI | inactive
RPFNRTYHILLYQMHYVRST | inactive

Substance | amyloid nucleation score
MLCFKPKPVRARNPGNILSH | inactive
TIFSIDFIIVYT | 1.81 ± 0.057
NWGLIMVSVEEDTDLGGSGM | -0.114 ± 0.88
CMVLDGRYNGWSISVWDARL | inactive
HGCYFYYSCTFYC | 3.29 ± 0.08
TVYLACIC | inactive
NVRGEENVKNILSGVL | inactive
SVRRLGGLLLYCNHFMFD | inactive
AMPMATLTVPMWLLILFVTF | inactive
WNSHQREEYTVDCYVVSVKL | -0.023 ± 0.6
GRFASYMYCILQQHSLFYWV | inactive
MIRVSHNRNASDQLRFASSL | inactive
CVFNMLEQ | inactive
TVNHDAIRELTDTSTDIFMS | inactive
TRSVFIHVYW | 0.095 ± 0.5
LFNSRMCMPRFASASNLACL | inactive
FGQCNQVCCSEWDKD | inactive
CESRP | inactive
DCIRIYQWASLSL | inactive
NYMVFNIGVGCFTISNTK | 3.14 ± 0.069
IAYNMCEIYVRVCYYFPIIC | inactive
ILWFMDGMIRSRGVPLGDGC | inactive
YLGGVRSII | -0.402 ± 1.9

Substance | amyloid nucleation score
HNRRKR | -0.16 ± 0.4
DRIDRDGRRIECQWGRGGVM | inactive
FDVVVIYATGVCFLATYYQG | inactive
NYDKCSDPRRRRRLFFHLYD | inactive
DLFKMRLGTERGY | inactive
FHVSCSSFSKWNHENWHNLK | 0.006 ± 0.56
YTRCNISNMV | inactive
WQCGNVLLSYAQYNAVLVAW | inactive
SYMACYFSIAYEYFNSTFDK | inactive
SWGIEDSVSYEMETDVVSNW | inactive
RNIRYLTLYQVTYLGRRRT | 2.25 ± 0.093
FNKNTDRGI | inactive
NIIYRVGSQYSL | inactive
TSGGTFQDATSHNSNSHMWK | inactive
MLIYSIVLGFKFSPPGFTSN | inactive
IGFFEFIKELITWKILS | inactive
YCFDI | inactive
RRAGNKWYVR | inactive
HFILVNIAFLVTDPHWLVRV | inactive
WCSGLPGLNRWSSTIPICCY | inactive
DRNRCIVYTHGEISRLQ | inactive
NPSVPTQTPVDMWACTKG | inactive
HNKAETTPLSHCMQSSSKLL | inactive

Substance | amyloid nucleation score
ILSLSQMNT | inactive
FLYWVGSFEAEPV | inactive
YLFWLYERRKGDYISPHVLR | inactive
WHAFRLMWDSNMLLLRGSVV | inactive
KKVISSCFYRVCVSSPAGSV | inactive
QFSSS | -1.13 ± 1.3
HNILFSDLGFYRSYYNADSM | inactive
SLMCLLVRLLIKN | inactive
VWIWWEDSGITCLGYMVLDF | inactive
ALRGWILWW | inactive
FGCQTGWRFRFINSNNR | 1.25 ± 0.14
GCKWWYSVFREWKSPLSGGV | inactive
DPLLLNRFGNCMLTLWVIVR | inactive
KLSSFSSLQIYTWYMILG | inactive
RSNICQFLKDFYKRCRKLF | inactive
ALFLACNH | 1.59 ± 0.095
AVQYPSVCWNYKSNSMHC | inactive
DVFRVMDNLLFWKGTLALIQ | inactive
FVDGVSYGTGTSSYKRTELY | inactive
KNYNNYMVSSNNLLVDIWLV | 1.47 ± 0.12
YGYALVFTFYVGLNSVNRLR | 0.801 ± 0.3
RPMDDKWLIGLFARNERDVP | inactive
KMSSHFV | inactive

Substance | amyloid nucleation score
VNCQCSSEWCHKNSVYFIRY | 2.59 ± 0.087
MMLDTWVTYPMREKLDAYRV | inactive
YVDMP | 0.089 ± 0.87
AKPIRSSGMFVCTAVYEYVF | inactive
NSIFSVFIGMMPCLGSMENI | 3.1 ± 0.081
LNFPQMSYP | inactive
SFNVDAYMNINCW | 1.02 ± 0.21
VVILWGR | inactive
ICWMRDTTVVGFRWV | -0.07 ± 0.96
LDVYTVTGRDW | inactive
NWDRTIMCMYY | 2.08 ± 0.075
SSNTTMRINSVRH | inactive
AILYTRHG | 0.082 ± 0.38
FFVLYRLRELPPAQLMMKAA | inactive
MDMLMLMGMALLIDSNVQAK | inactive
CVTCLARLHDGPEGIVHLCT | inactive
PGVTSMSLSYPGFWVSPS | inactive
NDASYDLRRWWCKTAPGLSG | inactive
VRTRWFIAPVCVARGSLCLV | inactive
KTLWHEVRGDDSNVSSCWFS | inactive
SCALDLIDLQKGVTSHKEFI | inactive
SFSVTMPMPIYTTLNGPLTN | inactive
SQSLPFVCA | inactive

Substance | amyloid nucleation score
TDVYHQNAQYHRVYNLQGRV | inactive
RSPRFLRELVLGCSNCWFCG | inactive
YEWKTRGW | inactive
SDEYTVTFHPSTPGKVSERD | inactive
RWLLMYLLLRSTATN | inactive
MSSFTAYLLNLR | inactive
FWKCWAVPDVCFYVWRSGCF | inactive
NSWVNSPFNLS | inactive
SSLIFLFDGKHRVLIYNLSN | 0.482 ± 0.47
GDLVLASAGYLVFGYLL | inactive
NSCTDSGPMGTSFSCTLGF | inactive
CPTVMAYGKTGG | 0.934 ± 0.21
TVGVTYIKVWNVPNILYRGC | 0.769 ± 0.15
NMLCTSL | 1.21 ± 0.11
HFQMRAERDESSNRPYSSFG | inactive
YFVTTVKVEALFQ | -0.23 ± 0.55
ILRYLSIVPRNFYRCYGHFG | inactive
LVICGYDIRN | inactive
HYRFNNACLDRGHSEGYWRI | inactive
WANNSCAIRGNNSPMGGSVA | inactive
QDHDVSYSSCPGYSVMVMEG | -0.399 ± 0.8
TKCVLNGRRLSLCPLDNSMR | inactive

Reference: the supplement of paper PMC12042874
